Tests used:
[1] = target: Human PCNA (proliferating cell nuclear antigen) (human); assay: crystal structure; co-crystal of PCNA with a 10 bp dsDNA, hanging drop, 20 °C, 11% PEG 3350, 0.1 M sodium acetate pH 4.5; space group H3, 2.8 Å
PCNA = PCNA (human, UniProt P12004 1-261); assay: NMR; 1H-15N TROSY titration, T73 CSP, single-site model; text gives ~0.7 mM; NMR: 100 uM PCNA, 20 mM sodium phosphate, 50 mM NaCl, pH 7.0, 20 uM DSS, 0.01% NaN3, 5% 2H2O, 35 C; conditions: protein: recombinant; tags: N-terminal His6 and PreScission site, cleaved; residual GPH- at N terminus; chain copies: 3; blunt
Chain of PCNA (P12004 whole entry): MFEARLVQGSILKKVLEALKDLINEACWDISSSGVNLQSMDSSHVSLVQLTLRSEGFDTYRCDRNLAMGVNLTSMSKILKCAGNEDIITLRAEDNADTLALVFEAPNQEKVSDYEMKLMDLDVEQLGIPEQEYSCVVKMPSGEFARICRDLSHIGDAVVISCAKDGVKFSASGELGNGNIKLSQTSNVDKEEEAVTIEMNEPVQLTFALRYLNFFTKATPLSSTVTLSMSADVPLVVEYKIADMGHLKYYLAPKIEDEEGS

Row | Molecule | stoichiometry N [1] | Kd (PCNA)
1 | Human PCNA (proliferating cell nuclear antigen) (natural protein) | 3 | –
2 | 10 bp dsDNA (dsDNA) DNA 1: ATACGATGGG DNA 2: CCCATCGTAT | – | 700 ± 100 µM
